From the nanobody polyreactivity screen of Harvey et al. (2022)

Assay: yeast display, Sf9 membrane polyspecificity reagent, FACS + sequencing; frameworks hold sequencing errors
How it was run: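 After 36–48 hours of galactose induction, yeast (Saccharomyces cerevisiae BJ5465) displaying a synthetic nanobody library were stained at 4 °C for 1 hour with 10% biotinylated, detergent-solubilized Sf9 membrane reagent. Streptavidin microbeads enriched the stained cells before FACS sorting into low and high (top ~1%) gates on anti-HA and streptavidin fluorescence. Each clone's polyreactivity label reflects its gate of origin.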

| Sequence | polyreactivity (PSR sort gate) |
| --- | --- |
| QVQLVESGGCLVQAGGSLRLSCAASGSTLYRYVMGWYRPAPGKESELVAAISWSGTNTYADSVKGRFTISRDNAKNTVYLQMNSLKPEDTAVYYSAAAGPGYNWGYRVYAIYDYWGQGSQVTVSS | high polyreactivity |
| QVQLEESGGGLDQAGGSLRLSCAASGSTYAYAMGWYRQAPRKERELVAAITRSGGSTYYADSVKGRFTISRDNAKNTVYLQMNSLKPEDTAVYYCRGKSTTWRGSQMDYWGQGTQVTVSS | high polyreactivity |
| QVQLGESGGGLVQAGGSLRLSCAASGSIFQPYAMGWYRQAPGKEREFVAAISRSGGMTYYADSVKGRFTISRDNEKNTVYLQMNSLKPEDTAVYYCATGRQVVRSYSEGDYSGQGTQVTVSS | low polyreactivity |
| QVQLVESGGGLVQAGGSLRLSCAASGRTFYPNTMGWYRQAPGKERELVATITRSGGTTYADSVKGRFTISRDNAKNTVYLQMHSLKPEDTAVYYCNADQRRYYWLVSQRYDYWGQGTQVTVSS | low polyreactivity |
| QVQLVESGGGLVKAGGSLRLSCAASGSTSPFNAMGWYRQAPGKERELVAAITSGGSTHYADSVKGRFTISRDNAKNTVYLPMNRLKPEDSAVYYCAAEPVAYYGSSYGYWGQGTQVNVSS | low polyreactivity |
| QVQLVESGGGLVQAGGSLRLSCAASGITFDYYAMGWYRQAPGKERELVAAISWGGGSTYYADSVKGRFTISRDNAKNTVYLQMNSLKPEDTAVYYCAADIVSSPSSYVPPGDYWGQGSQVTVSS | low polyreactivity |
| QVQLVESGGGLVQAGGSLRLSCAASGSIFTKYAMGWYRQAPGKEREFVAAITLSGGSTYYADSVKGRFTISRDNAKNTVYLQMNSLKPEDTAVYYCNAAYTYVTAWYYYWGQGTQVTVSS | high polyreactivity |
| QVQLVESGGGLVQAGGSLRLSCADSGIIFRYYSMGWYRQAPGKESEFVAAITGSSGSTYADSVKGRFTISRDNAKNTVYLQMNSLKPEDTAVYYCNADSYSIWVYGEYDYWGLGTQVTVSS | high polyreactivity |
| QVQLVVSGGGLVQAGGTLRLSCAASGSILSDNGMGWYRQAPGKERELVASIRTGDITKYADCVKGRFTISRDNAKNTVDLQMTSLKPEDTAVYYCAAAGRVQYTRKYYGWRNRNDYWGQGTQVTVSS | low polyreactivity |
| QVQLVESGGGLVQAGGSLRISCAASGSTFGYNDMGWYRQAPGKERELVAAIDTGVSTNYADSVKGRFTISRDNAKNTVYLQMNSLKPEDTAVYYCAKSGSAYWHSGWSVGFDYWGQGTQVTVSS | low polyreactivity |
| QVQLVESGGGLVQAGGSLRLSCAASGRIFRYYAMGWYRQAPGKERELVAAITAGGGTTYYADSVKGRFTISRDNAKNTVYLQMNSLKPEDTAVYYWAKDGRYYSHYNYWGQGTQVTVSS | high polyreactivity |
| QVQLVESGGGLVQAGGSLRLSCAASGFTSSYYAMGWYRQAPGKERELVAAISSSGGSTYYADSVKGRFTISRDNAKNTVYLQMNSLKPEDTAVYYCAAARRERAGRQYDYWGQGTQVTVSS | low polyreactivity |
| QVHLVESGGGLVQAGGSLRLSCAASGSIFDYYDMGWYRQAPGKERELVASITWSGGRTSYADSVKGRFTISRDNAKNTVYLQMNSLKPEDNAVYYCNARGFRGEYDYWVQGTQVTVSS | high polyreactivity |
| QVQLVESGGGLVQAGGSLRLSCAASGSTFTGNVMGWYRQAPGKERELVAAIRDSGGSTYYADSVKGRFTISRDNAKNTVYLQMNSLKPEDTAVYYCDAEYLYGSYYGYYYWGQGTQVTVSS | low polyreactivity |
| QVQLVESGGGLVQAGGSLRLSCAASGSIIGTNVMGWYRQPPGKERELVPSISYRDGTTYYADSVKGRFTISRDNAKNTVYLQMNSLKPEDTAVYYFAVANYYSYYWGQGTQVTVSS | low polyreactivity |
| QVQLVESGGGLVQAGGSLRISCAASGIIFRGNAMGWYRQAPGKERELVAAISSGGGTYYADSVKGRLTISRDNAKNTVYLQMNSLKPEDTAVYYCNRVRYYQYGYDYWGQGTEVTVSS | high polyreactivity |
| QVQLVESGGGLVQAGGILRLSCASSVTFFMGWYRQAPGKEWELVAGISISDVSTYYADSVKGRFTISRDNAKNTVYLQMNSLKPEDTAVYYCAAEFYPTTGFDYWGQGTQVTVSS | low polyreactivity |
| QVQLVESGGRLVQAGGSLRLSCAASGRTFRSHTKGWYRKAPGKERELVAAIIIGGSTYYADTVKGRFTISRDNAKNTVYLQMNSLKPEDSAVYYCARFYRYSRDYWGQGTQVTVSS | high polyreactivity |
| QVQLVESGGGLVQAGGSLRLSCAATGSTSVHNAMGWYRQAPGKERELVDAITSDGSTNYADSVKGRFTISRDNAKNTVYLQMNSLKPEDTAVYFCGAAYWTRLRRMDYWGQGTQVTVSS | low polyreactivity |
| QVQLVESGGGLVQAGGSLRLSCAASGRIFGAYAMGWYRQAPGKERELVAAISSGGSTNYADSVKGRFTISRDNAKNTVYLQMNSLKPEDTAVYYCAAERLYSWYYYKYNSEFYYWGQGTQVTVSS | low polyreactivity |
| QVHLEESGGGLVQAGGSLRLSCAASGRIPFYAMGWYRQAPGKEREFVAAIRFSGGSTFYADSVKGRFTISRDNAKNTVYLQMNSLTPEDTAVYYCAAYLYYPFYWWRDYCGQGTQVTVSS | high polyreactivity |
| QVQLVESGGGLVQAGGSLRLSCAASGSIFGTYTMGWYRQAPGKERELVASISRRGGSTYYADSVKGRFTISRDNAKNTVYLQMNSLKPEDTAVYYCAKPVYYLPGEYDYWGQGTQVTVSS | high polyreactivity |

| Sequence | polyreactivity (PSR sort gate) |
| --- | --- |
| QVQLVESGGGIVQAGGILRLSCAASGRISVFNDMGWYRQAPGKERELVAAITSGGSTKYADSVKGRFTISRDNAKNTVYLQMNSLKPEDTAVYYCASLYQFHGKIWDGDYWGQGTQVNVSS | low polyreactivity |
| QVQLVESGGGLVQAGGSLRLSCAASGFIITYYAMGWYRQATGKDRELVAVISWSGGTTYYAESVKGRFTISRDNATNTVYLQMNSLKPEDTAVYYCAAYRYFRPGDYWGQGTQVTVSS | low polyreactivity |
| QVHLVESGGGLVQAGGSLRLSCAASGRTFRRYAMGWYRQAPGKERELVAAISYNGGRTYYADSVKGRFTISRDNAKNSVYLQMNILKPEDTAVYYCNAERGFSDYWGQGTQVTVSS | high polyreactivity |
| QVQLVESGGGLVQAGGSLRLSCAASGSTVYVYAMGWYRQAPGKERELVATISSSGAITYYADSVKGRFTISRDNAKNTVYLQMNSLKPEDTAVYYCARTGSLLSQVWYNYWGQGTQVTVSS | low polyreactivity |
| QVQLVESGGGLVQAGGSLRLSCAASGFTFTVYAMGWYRPAPGKERELVAVITSGDGTYYADSVKGRFTISRDNAKNTVYLQMNSLKPEDTAVYYCNARRYSSFRYRFAYDYWGQGTQVTVSS | low polyreactivity |
| QVQLEESGAGLVQAGGSLRLCCAASGFTIGYNVMGWYRQAPGKERELVATISWNGARTYYADSVKGRFTISRDNAKNTVYLQMNSLKPEDTAVYYCAARRYYRGEYDYWGQGTKVTVSS | low polyreactivity |
| QVQLVESGGGLVPAGGSLRLSCASSGITFRVYVMGWYRQAPGKESELVAPIDDNGGSTYYADSVKGRFTISRDNAKNTVYLQMNSLKPEDTAVYYCAKAIVYSLLEYGWVDYDDWGQGTQLTVSS | low polyreactivity |
| QVQLVESGGGLVQAGGSLRLSCAATGIFVVYAMGWYREAPGKERELVAAIRSDASTNYADSVKGRFTISRDNAKNTVYLQMNILKPEDTAVYYCNTAQLVSDEFDYWGQGTQVTVSS | low polyreactivity |
| QVQLVESGGGLVQAGGSLRLICAASGITFLRYAMGWYRQAPGKERELVAAISTRGGSTYYADSVKGRFTISRDNAKNTVYLQMNSLKPEDTAVYYCAAAGVTGSYGGKGRWYDFWGQGSQVTVSS | high polyreactivity |
| QVQLVESGGGLVQAGGSLRLSCAASGAIFFVNDMGWYRQAPGKERELVAAITYSSGGTYYADSVKGRFTISRDNAKNTVYLQMNSLKPEDTAVYYCAVDFFLSYYSDMDYWGQGTQVTVSS | low polyreactivity |
| QVQLVESGGGLVQAGGSLRLSCAASGRIFYYYAMGWYRQAPGKERELVATISRSGGSTYYADSVKGRFTISRDNAKNTVYLQMNSLKPEDTAVYYCAAGYGPSGYTRYYWGQGTQVTVSS | high polyreactivity |
| QVQLVESGGGLVQAGGSLRLSCAASGSTFFPNGMGWYRLAPGKERELVAAITQDGGSTYYADSVKGRFTISRDNAKNTVSLQMNSLKPEDTAVYYCAASAGPSYEYGYWGQGTQVTVSS | low polyreactivity |
| QVQLVESGGGLVQAGGSLRLSCAASGRTFASYAMGWYRQAPGKERQLVAAITRGGNTNYADSVKGRFTISRDNAKNTVYLQMNSLNPEDTAVYYCATEGFVYSWLWEFEYWGQGTQVTVSS | low polyreactivity |
| QVQLQESGGGLVQAGGSLRLSCAASGSIFDGFNMGWNRQAPGKEREFVAAISYGASTYYADSVKGRFTVSRDNAKNCVYLQMNSLKPEDSAVYYCAVYDELYQVLVYWGRGTQVTVSS | low polyreactivity |
| QVQLVESGGGLVQAGGSLRLSCAASGRTFAFYTMGWYRQAPGKEREFVAAISWSGGSTHYADSVKGRFTISRDNAKNTVYLQMNSLKQEDSAVYYCAAGPFYRFTDGRYKTLDYWGQGTQVTVSS | high polyreactivity |
| QVQLVESGGGLVQAGGSLRLSCAASGRTFQWNGMGWYRQAPGKERELVDTIRRGGSTNYADSVKGRFTISRDNAKNTVDLQMNSLKPEDTAVYYCAADRRYPGGWGFEYNYWGQGTQVTVSS | low polyreactivity |
| QVQLVESGGGLVQAGGSLRLSCAASGFIFASYAMGWYRQAPGTERELVAAISWRGGSTYYADSVKGRFTISRDNAKNTVYLQMNSLKPEDTAVYYCNAYGYDGTGRGYDTLDYWGQGTQVTVSS | low polyreactivity |
| QVQLVESGGGLVQAGGSLRLSCAASGSIFYNYTMGWSRQAPGKERELVAAISSSGGSTYYADSVKGRFSISRDNAKITVYLQMNSLTPEDTAVYFCAARSPGYYRIVWYDYWGLGTQVTVSS | high polyreactivity |
| QVQLVESGGGLVQSGGSLRLSCAASGSIFNRYAMGWYRQAPGKERELVAAISARGGSTYYADSVKGRFTISRDNAKNTVYLQMNSLKPEDTAVYYCAARRQGDYYYWGQGTQVTVSS | high polyreactivity |
| QVQLVESGGGLVQAGGSLRLSCAASGRTIRGYTMGWYRQSAGTERELVATITKRGGSTTYADSVKGRFTISRDNAKNTVYLQMNSLKPEDTAVYYCNKDTITSTLTPYTSWFGYWGQGTQVTVSS | high polyreactivity |
| QVQLVESGGGLVQAGGSLRLSCAASGRTFVKNNMGWYRQSPGKERELVAAISSSGGSTYYADSVKGRFTISRDNAKNSVYLHMNSLNPEDTAVYFCAVSYPYKHAGGWYAYNYWGQGTQVTVSS | high polyreactivity |
